Experimental data published in the RNAGym collection of RNA variant scans (doi:10.1073/pnas.2313332121).
Variants at the floor of the assay were thinned out.

B1: TPR 5TU (parent)
chain: GGAUCUUCUCGAUCUAACAAAAAAGACAAAUCUGCCACAAAGCUUGAGAGCAUCUUCGGAUGCAGAGGCGGCAGCCUUCGGUGGCGCGAUAGCGCCAACGUUCUCAACUAUGACACGCAAAACGCGUGCUCCGUUGAAUGGAGUUUAUCAUG

Variants of: B1
Experiment: polymerase ribozyme fitness, log enrichment relative to wild type (log ratio); higher = more active; in vitro selection for triplet polymerase activity
In short: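 Mutant libraries were PCR-built and transcribed for each subunit of a heterodimeric triplet polymerase ribozyme and selected for one round in triplicate at −7 °C, frozen, before gel excision of extended constructs and streptavidin-bead capture. Input and output libraries were Illumina-sequenced, keeping genotypes with ≥10 input reads and ≥1 read per output. Fitness is a logarithmic ratio of genotype to wild-type enrichment, in base 2, using inverse-variance-weighted replicate averages.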

| Variant | polymerase ribozyme fitness (log ratio) |
| --- | --- |
| C32U C96G A142U | -3.35 |
| U31G C123G A142G | -1.12 |
| U31C C95G | -0.224 |
| C32G G92A U111G | -4.13 |
| C32U C103U | -2.66 |
| U31C A41G U53A U55A | -0.0378 |
| C32U A37C G68A G80A C87U C95G | ≤ -4.2 |
| U33C C85A | -3.61 |
| C32U U144A | -2.41 |
| C32G U55A | -3.78 |
| U31C A37C A106U A107C | ≤ -4.2 |
| C32U A52U U90C G128C | ≤ -4.2 |
| C32U C125U | -2.22 |
| U33C A97G | -2.92 |
| U33A G80A | -3.68 |
| U31C U53G | -0.735 |
| C32U A52G U77G A97C U144A | ≤ -4.2 |
| U31G U53A C95U U135G | -3.6 |
| C32U A147C | -2.55 |
| C32A C51A C54A G92A A97U U146C | ≤ -4.2 |
| C32A U33G A66G G83A U102G C118G G124C G141C G143U | ≤ -4.2 |

| Variant | polymerase ribozyme fitness (log ratio) |
| --- | --- |
| C32U A40U U56C C85U U90A C114U | -4.06 |
| U31C C54U G71U C96U | -3.79 |
| C32U C118U G133C | -2.99 |
| C32G C76U G88C C96A C103U U127G C129A U139A A142U | ≤ -4.2 |
| U31G A89C C95G C99A | ≤ -4.2 |
| C32G C35A | -3.92 |
| C32A C38A U56A C69U C93A A122C G126U | ≤ -4.2 |
| C32U A49C | -4.13 |
| C32U A49U | -4.14 |
| U33A A37G C105U A106G | -4.07 |
| U31A U55G C93G A110C A115U C123G | ≤ -4.2 |
| C32A G58C A64U C85G | ≤ -4.2 |
| U31G A37U A49C C93A A106G G117C U145C U148A | ≤ -4.2 |
| C32G A49U G65U C93U C99G A110U A147U | ≤ -4.2 |
| U31C A39C C57A C76G C95G C131U U144G | ≤ -4.2 |
| U31G U56G C93G C96G G133C | ≤ -4.2 |
| U31G A52U A60G A98G | -4 |
| C32U C38U C69A U78A C99G U101A U127C | ≤ -4.2 |
| C32A A49U G68U C79G C85U U127G | ≤ -4.2 |
| U31C A60C G92A C99A | ≤ -4.2 |
| C32A C35U C57G G62A U90C C103G C116U C149U | ≤ -4.2 |

| Variant | polymerase ribozyme fitness (log ratio) |
| --- | --- |
| U31G G83U G126C | -0.857 |
| U33A G48A U78C G84A C105U | ≤ -4.2 |
| U33A A40C A41U C93G | -3.86 |
| C32U U55G U61C G84U G100C | ≤ -4.2 |
| C32G G42C U44A G88C C95U C103G | ≤ -4.2 |
| C32G A37C C85G | ≤ -4.2 |
| C32A G50A A137G | ≤ -4.2 |
| C32U U101A | -3.76 |
| U31C C35U G68C G92U U104A A115U A119C G143A | ≤ -4.2 |
| C32G C96U C116G G141U | ≤ -4.2 |
| U33A A47C C99A | ≤ -4.2 |
| C32U A39G A40C C54A G94U A142U | ≤ -4.2 |
| C32A U55A C76U A89G G92U A119G | ≤ -4.2 |
| U33C C54A G83C C108G U146A C149A | ≤ -4.2 |
| C32G A49C | ≤ -4.2 |
| U31G A37C G126U | -2.65 |
| U31C A39C C54U A73G U90G G124A | ≤ -4.2 |
| C32U U53A G84U A120G G128U A142U | ≤ -4.2 |
| U33A A39G U90A U130A | ≤ -4.2 |
| U33A G58A C96A G152U | -3.79 |
| U33A C57U C79G A89U A97G | ≤ -4.2 |

| Variant | polymerase ribozyme fitness (log ratio) |
| --- | --- |
| U31C U53G G67C C76G G83A | -3.62 |
| U31C G46C G92A | -3.48 |
| C32G C93U A119U A147U | ≤ -4.2 |
| U31G C125U U130A | ≤ -4.2 |
| C32A C69G A98U | -1.51 |
| C32G C38G C93G G133U | -3.72 |
| C32U C93A | -4.11 |
| U31G G50A | -1.51 |
| U31C G58A G94U G143U | -2.9 |
| U31G G50A C87A U135A | ≤ -4.2 |
| C32A U61G U82A G92U C99G | ≤ -4.2 |
| U31G C123U | 0.732 |
| C32A A41C A66C C95U C99G G117U A150C | ≤ -4.2 |
| U31C C69U G86U C96U A142G | -2.99 |
| U31C A47G A49U G94A A119G G136C | -4.04 |
| U33C C57U G80U G83U C87U G128U | ≤ -4.2 |
| U31G C93G G133U U134C | ≤ -4.2 |
| U31A U56A G86A A97C C105A U145C | ≤ -4.2 |
| U33A A49C C76U G80U C149G | ≤ -4.2 |
| U33A G46A G59A C103A A115G | -4.12 |
| U33C A40C G68U C95A U102C C132G | -3.48 |
